# Measured values reported in patent publication US7148193B2, “Compounds that bind to growth hormone receptor” (Antyra, Inc., priority 1997, dated 2006).
# Positions count from the first letter of the chain named. “And” between values parts separate entries of the source, which are not always exact repeats. Equal values may be shown once. Read-outs that look alike come from different tables or passages of the source.
# T1: rGHBP (Rattus norvegicus, UniProt P16310)
# T1 construct: 1–48 of GHBP; The 3′ oligo used for this reaction encoded the mutation L43R (CTG→AGA); The second PCR reaction amplified the DNA encoding amino acids 38–260; 6xHis; made in house
# T1 sequence (P16310 19-278 isoform P16310-2): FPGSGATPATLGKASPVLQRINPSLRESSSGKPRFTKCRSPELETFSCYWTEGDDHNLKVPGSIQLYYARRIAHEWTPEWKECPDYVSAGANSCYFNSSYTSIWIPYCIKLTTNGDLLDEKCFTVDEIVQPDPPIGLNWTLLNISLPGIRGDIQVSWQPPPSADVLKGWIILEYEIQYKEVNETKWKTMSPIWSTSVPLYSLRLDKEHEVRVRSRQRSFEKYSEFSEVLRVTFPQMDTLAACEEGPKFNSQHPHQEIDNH
# T2: ‘hu’ GHBP (humanized rat GHBP) (Rattus norvegicus, UniProt P16310, L61R)
# T2 construct: 1–48 of GHBP; The 3′ oligo used for this reaction encoded the mutation L43R (CTG→AGA); The second PCR reaction amplified the DNA encoding amino acids 38–260; 6xHis; made in house
# T2 sequence (P16310 19-278 isoform P16310-2 L61R): T1 sequence (P16310 19-278 isoform P16310-2) with L43R
# T3: ‘hu’ GHBP (Rattus norvegicus, UniProt P16310, L61R)
# T3 construct: 1–48 of GHBP; The 3′ oligo used for this reaction encoded the mutation L43R (CTG→AGA); The second PCR reaction amplified the DNA encoding amino acids 38–260; 6xHis; made in house
# T3 sequence (P16310 19-278 isoform P16310-2 L61R): T1 sequence (P16310 19-278 isoform P16310-2) with L43R
# B1: GH: non-biotinylated growth hormone, the cognate ligand of GHBP (protein, UniProt P01244 27-216, looked up)
# Somatotropin: FPAMPLSSLFANAVLRAQHLHQLAADTYKEFERAYIPEGQRYSIQNAQAAFCFSETIPAPTGKEEAQQRTDMELLRFSLLLIQSWLGPVQFLSRIFTNSLMFGTSDRVYEKLKDLEEGIQALMQELEDGSPRIGQILKQTYDKFDANMRSDDALLKNYGLLSCFKKDLHKAETYLRVMKCRRFAESSCAF
# B2: rat GH: rat growth hormone (protein, UniProt P01244 27-216, looked up)
# Somatotropin: B1 Somatotropin
# B3: bGH: biotinylated GH used as bLigand in the TRFD assay (protein, UniProt P01244 27-216, looked up)
# Somatotropin: B1 Somatotropin
# modifications: biotin
# notes: biotinylated GH used as bLigand in the TRFD assay
# B4: bovine GH: bovine growth hormone (protein)
# chain: AFPAMSLSGLFANAVLRAQHLHQLAADTFKEFERTYIPEGQRYSIQNTQVAFCFSETIPAPTGKNEAQQKSDLELLRISLLLIQSWLGPLQFLSRVFTNSLVFGTSDRVYEKLKDLEEGILALMRELEDGTPRAGQILKQTYDKFDTNMRSDDALLKNYGLLSCFRKDLHKTETYLRVMKCRRFGEASCAF
# What was measured:
# rGHBP [1] = target: T1, rGHBP; assay: Time-resolved fluorometric detection (TRFD) of specific bLigand binding to rGHBP and its competition; settings: for IC50: competitor added 1 hr before bLigand
# Description: For this invention, saEu forms a ternary complex with bP and rGHBP (i.e., the rGHBP:bP:saEu complex). As described herein, the TRFD assay is performed using biotinylated GH (bGH) as bLigand. Biotinylated H5-mutant peptides bP#447 (SEQ ID NO:11) and bP#418 (SEQ ID NO:12) are also used as bLigand (see below). The TRFD assay described herein faithfully reports the competition of ligand binding to the active site of rGHR. To perform the TRFD assays, soluble rGHBP is attached to the surface of microtiter wells, then incubated with bP. Unbound bP is than washed away and (sa)Eu is added to complex with receptor bound bP. The rGHBP:bP bound (sa)Eu is then converted into its highly fluorescent state and detected by TRFD.
# Wells were coated with rGHBP(100 ng/well) overnight as described. ED50 and IC50 were calculated from analysis of specific bLigand binding to rGHBP. Competitors were added 1 hr prior to addition of bLigand as described.
# rGHBP (50–200 μg/ml in 50 mM NaHCO3) was coated onto low-fluorescence MaxiSorp (Nunc) plates (100 μl/well) overnight at 4° C. The plates were blocked with PBS containing 2% non-fat milk and 0.05% BSA for 2 hr at room temperature, followed by three PBS washes. For competitions, serial dilutions of unlabelled growth hormone (0.1 nM-100 nM) or MAb 2C3 (0.67–67 nM) were added to the plates (100 μl/well) and incubated at room temperature for 1–2 hr. Biotinylated peptide or biotinylated GH (10× concentrations) were incubated in blocking buffer for 30 min to decrease non-specific binding. Ten microliters of the 10× concentrated material was added to the plates and incubated at room temperature for 1 hr to overnight.
# The plates were then washed five times with Tris-buffered saline (pH 7.5) containing 0.1% Tween-20 (TTBS). To each well, 100 μl of europium-labeled streptavidin in DELFIA assay buffer (100 mM Tris-HCl, pH 7.8; 150 mM NaCl; 0.5% BSA; 0.05% bovine Ig; 0.05% NaN3; 0.01% Tween-20) was added and incubated for 1.5 hr at room temperature. The plates were then washed five times with TTBS and tapped dry. Subsequently, 100 μl of DELFIA enhancement solution (100 mM acetone-potassium hydrogen phthalate, pH 3.2; 15 mM 2-naphtyltrifluoroacetate; […] tri(n-octyl)-phosphine oxide; 0.1% Triton X-100) was added to each well, and the plates were shaken for 10 min at room temperature. Fluorescence of each sample well was measured at 615 nm using a DELFIA 1234 fluorometer (EG&G Wallac). General procedure and references as described by Wallac are available in “Lanthanide labeling for time-resolved fluorometry”: Wallac publication 1244–1126-03.
# rGHBP [2] = target: T1, rGHBP; assay: Phage ELISA binding and competition on rGHBP coated wells; settings: ELISA signal
# Description: For analysis of individual clones, colonies were picked and phage prepared as described above. Microtiter wells were coated and blocked as described above. Wells were coated with either rGHBP or a control IgG MAb. Phage resuspended in MPBS were added to duplicate wells (100 μl/well) and incubated at room temperature for 1 hr. The phage solution was then removed, and the wells were washed three times with PBS at room temperature. Anti-M13 antibody conjugated to horseradish peroxidase (Pharmacia Biotech) was diluted 1:3000 in MPBS and added to each well (100 μl/well). Incubation was for another hour at room temperature, followed by PBS washes as described. Color was developed by addition of ABTS solution (100 μl/well; Boehringer). Color development was stopped by adjusting each well to 0.5% SDS. Plates were analyzed at 405 nm using a SpectraMax 340 plate reader (Molecular Devices) and SoftMax Pro software. Data points were averaged after subtraction of appropriate blanks. A clone was considered “positive” if the A405 of the well was >2-fold over background. […]
# These clones were next analyzed for binding to the receptor's active sites (FIG. 2B). Competitions of phage binding were done both with the cognate ligand (i.e., GH) and with a specific target-neutralizing MAb 2C3 (Wang, B. S., et al. Mol. Cellular Endocrinology, vol. 116, p. 223–226, 1996).
# (§1) Clones were tested for the presence of E-tag and binding to ‘hu’ GHBP, rGHBP, or BSA-coated wells. Those having specific GHBP binding (i.e., at least 2 fold greater binding to the GHBP than BSA) and with an E-tag positive signal were subjected to DNA sequencing. Three different clones were isolated and tested a second time against GHBP plus and minus GH (1 μM) or BSA (1 μM) coated wells as described. In these tests, huGH was used as competitor with ‘hu’ GHBP coated wells and bovineGH was used as a competitor with rat GHBP coated wells. […] The following open reading frame insertion including the DYKD (SEQ ID NO:79) amino terminal tag and up to the C-terminal E-tag was obtained for these clones; and is shown in Table III: […]
# [3] = target: T2, ‘hu’ GHBP (humanized rat GHBP); assay: Phage ELISA binding and competition on 'hu' GHBP coated wells; settings: ELISA signal
# Description: For analysis of individual clones, colonies were picked and phage prepared as described above. Microtiter wells were coated and blocked as described above. Wells were coated with either rGHBP or a control IgG MAb. Phage resuspended in MPBS were added to duplicate wells (100 μl/well) and incubated at room temperature for 1 hr. The phage solution was then removed, and the wells were washed three times with PBS at room temperature. Anti-M13 antibody conjugated to horseradish peroxidase (Pharmacia Biotech) was diluted 1:3000 in MPBS and added to each well (100 μl/well). Incubation was for another hour at room temperature, followed by PBS washes as described. Color was developed by addition of ABTS solution (100 μl/well; Boehringer). Color development was stopped by adjusting each well to 0.5% SDS. Plates were analyzed at 405 nm using a SpectraMax 340 plate reader (Molecular Devices) and SoftMax Pro software. Data points were averaged after subtraction of appropriate blanks. A clone was considered “positive” if the A405 of the well was >2-fold over background.
# Humanized GHBP (‘hu’ GHBP) contained the single amino acid change of rat GHBP amino acids L43 to R43, and was capable of binding human GH, as shown in FIG. 9. Direct immobilization of ‘hu’ GHBP was done as described earlier for panning of the secondary H5 library against rat GHBP and used inputs of ‘hu’ GHBP, prepared as described earlier of 100 μl per well of […] protein. Panning was performed with or without H10 peptide (SEQ ID NO:9; 30 μM) for 4 rounds, and 96 clones were picked.
# as §1
# ‘hu’ GHBP = target: T3, ‘hu’ GHBP; assay: Species specificity of binding by ELISA and BIAcore, 'hu' GHBP; settings: in words
# Description: Wells were coated with either recombinant rGHBP or ‘hu’ GHBP (100 ng/well). Additions of H5 (SEQ ID NO:8) and H10 (SEQ ID NOS:9, 80, and 81) phage (10^10/well) and detection were made as described. […] Streptavidin chips were coated with H5 (SEQ ID NO:8) to 1100 RU as described and rGHBP or ‘hu’ GHBP (500 μg/ml) injected as 30 μl samples.
# Growth hormone receptors from different species bind human GH as well as their own GH, however human GHR only binds human or monkey GH. […] The sequence of rGHBP was altered by PCR to create a “humanized” version (‘hu’ GHBP; FIG. 9A). Partially purified ‘hu’GHBP (FIG. 9B) was tested for binding using ELISA and BIAcore analysis. […] This was confirmed by BIAcore analysis (FIG. 10B).
# The biotinylated control peptide (SEQ ID NO:10) was immobilized onto one flow cell of a SA-5 (streptavidin coated) sensor chip to a final density of 700 RU. On a second flow cell, either hGH (1100 RU final density), H5WT peptide (SEQ ID NO:8; 1100 RU final density), or bGH (730 RU final density) was immobilized. GHBP (either rat or humanized) was injected at a concentration of 500 μg/ml with a flow rate of 5 μl/min. Background binding to the control surface was subtracted prior to further analysis.
molecule,measurement,setting,value
445: H5-mutant peptide SEQ ID NO:13 (DYKDLCQRLGVGWPGWLAGWCA; #445 peptide) [compound 445],saturation of receptors,rGHBP [1]; TRFD,could not be saturated
same,"ELISA Competition, rGHBP, +BSA",rGHBP [2]; BSA 1 μM,0.44
same,"ELISA Competition, rGHBP, +bGH",rGHBP [2]; bovine GH 1 μM as competitor,0.16
same,"ELISA Competition, rGHBP, none",rGHBP [2]; no competitor,0.45
same,"ELISA Competition, ‘hu’GHBP, +BSA",[3]; BSA 1 μM,0.11
same,"ELISA Competition, ‘hu’GHBP, +hGH",[3]; huGH 1 μM as competitor,0.12
same,"ELISA Competition, ‘hu’GHBP, none",[3]; no competitor,0.14
C[S+](C)[O-] [DMSO],IC50 vs. bGH,"rGHBP [1]; TRFD, DMSO effect on bGH binding",>>3%
same,IC50 vs. bP#418 (SEQ ID NO: 12),"rGHBP [1]; TRFD, DMSO effect on bP#418 binding",>>3%
same,IC50 vs. bP#447 (SEQ ID NO: 11),"rGHBP [1]; TRFD, DMSO effect on bP#447 binding",>>3%
same,DMSO IC50,"rGHBP [1]; specific binding of bGH (3 nM), bP#447 (0.3 μM) and bP#418 (0.3 μM), 0 to 20% DMSO",> 15 % (v/v)
human GH: human growth hormone,binding to ‘hu’ GHBP,‘hu’ GHBP,bound to human GH
B1,IC50,"rGHBP [1]; TRFD, competition of bGH (2 nM) binding, read-out: IC50 vs. bGH",5 nM
same,IC50,"rGHBP [1]; TRFD, competition of bP#418 (300 nM) binding, read-out: IC50 vs. bP#418 (SEQ ID NO: 12)",2 nM
same,IC50,"rGHBP [1]; TRFD, competition of bP#447 (300 nM) binding, read-out: IC50 vs. bP#447 (SEQ ID NO: 11)",0.4 nM
B2,binding to ‘hu’ GHBP,‘hu’ GHBP,failed to bind
B3,EC50,"rGHBP [1]; TRFD, wells coated with rGHBP 100 ng/well, read-out: ED50 (half-maximum specific binding)",~20 nM and 20 nM
B4,binding to ‘hu’ GHBP,‘hu’ GHBP,failed to bind
